Patent publication US20230235054A1 (BIOATLA, published 2023)
Read-outs that look alike come from different tables or passages of the source.

T1: huNectin4-His (human, UniProt Q96NY8 32-349)
T1 construct: Immobilized on the SPR chip; also called humanNectin4; human Nectin4; not shown: His tag
T1 sequence (looked up): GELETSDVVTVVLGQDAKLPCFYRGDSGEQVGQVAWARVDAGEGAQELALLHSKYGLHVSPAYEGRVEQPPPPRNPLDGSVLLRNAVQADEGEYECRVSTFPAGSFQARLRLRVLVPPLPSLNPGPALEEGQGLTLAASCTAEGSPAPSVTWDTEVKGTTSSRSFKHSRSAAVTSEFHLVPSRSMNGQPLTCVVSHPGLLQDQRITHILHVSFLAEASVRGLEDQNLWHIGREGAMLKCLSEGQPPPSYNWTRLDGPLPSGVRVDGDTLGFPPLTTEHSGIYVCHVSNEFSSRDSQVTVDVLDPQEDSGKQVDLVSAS

T2: human Nectin-4 on cells (human, UniProt Q96NY8 32-510)
T2 construct: whole, on cells; also called HEK293 cells expressing human Nectin-4; T47D cells that express human Nectin-4
T2 sequence (looked up): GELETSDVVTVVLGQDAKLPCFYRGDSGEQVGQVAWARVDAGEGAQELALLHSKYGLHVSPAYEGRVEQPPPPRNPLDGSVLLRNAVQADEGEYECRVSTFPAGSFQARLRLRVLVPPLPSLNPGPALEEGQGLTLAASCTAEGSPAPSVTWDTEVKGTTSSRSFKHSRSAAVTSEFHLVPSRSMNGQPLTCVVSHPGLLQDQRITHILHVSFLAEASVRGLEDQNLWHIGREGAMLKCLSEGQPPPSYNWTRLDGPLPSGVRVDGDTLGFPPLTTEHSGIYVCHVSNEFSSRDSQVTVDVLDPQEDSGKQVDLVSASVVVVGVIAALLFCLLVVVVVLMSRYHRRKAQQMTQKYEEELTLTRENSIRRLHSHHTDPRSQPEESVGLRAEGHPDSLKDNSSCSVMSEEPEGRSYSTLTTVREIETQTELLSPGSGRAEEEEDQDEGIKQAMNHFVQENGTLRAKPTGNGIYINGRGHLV

T3: recombinant human Nectin4 antigen (human, UniProt Q96NY8 32-349)
T3 construct: construct not described
T3 sequence (looked up): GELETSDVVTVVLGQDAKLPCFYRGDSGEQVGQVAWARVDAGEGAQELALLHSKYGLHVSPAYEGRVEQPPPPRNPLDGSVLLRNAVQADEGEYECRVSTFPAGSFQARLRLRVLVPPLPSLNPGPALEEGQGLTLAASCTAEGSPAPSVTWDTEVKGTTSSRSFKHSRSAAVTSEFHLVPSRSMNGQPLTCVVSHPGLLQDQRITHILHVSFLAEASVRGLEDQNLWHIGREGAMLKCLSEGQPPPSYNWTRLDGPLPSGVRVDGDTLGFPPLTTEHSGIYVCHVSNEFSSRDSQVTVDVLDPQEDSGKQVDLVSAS


Columns and labels:
huNectin4-His [1] = target: T1, huNectin4-His; assay: SPR, huNectin4-His immobilized, pH 6.5
Protocol: (§1) Binding kinetics of anti-Nectin4 antibodies were measured by surface plasmon resonance using a SPR2/4 instrument (Sierra Sensors, Hamburg, Germany) and flat amine sensor chips. The SPR sensor contained four flow cells (FC1-FC4), each of which was addressed individually or in groups. huNectin4-His was immobilized in FC2, and cynoNectin4-mFc in FC4. No protein was immobilized in FC1 and FC3 which were used as control surfaces for FC2 and FC4, respectively.
(§2) All injections were done at a flow rate of 25 μL/min at 25° C. The sensor surface was activated with 1-ethyl-3-(3-dimethylaminopropyl)-carbodiimide (EDC) and N-hydroxysuccinimide (NHS) (200 mM/50 mM) for 480 seconds. HuNectin4-His (2 μg/mL in 10 mM NaAc, pH4.5) was injected for 480s and the surface was inactivated by injecting 1M ethanolamine-HCl for 480s. CynoNectin4 was immobilized using the same conditions as described for huNectin4-His, except that the cynoNectin4 was diluted into 10 mM NaAc buffer having pH 5.0. The control surface was activated and deactivated using the same conditions, but without injecting protein. PBST buffer (PBS pH 7.4 with 0.05% TWEEN20™) was used as running buffer for the surface preparation. The running solution was switched to PBST with 30 mM sodium bicarbonate with the pH adjusted as indicated in the figures before the analyte injections. The instrument was equilibrated with the running solution for one hour before the first analyte injection.
(§3) The off-rate was measured for 360s. The chip surface was regenerated after each cycle of interaction analysis by injecting 6 μL of 10 mM glycine (pH 2.0). Flow cells 1 and 3 without immobilized protein were used as control surfaces for reference subtraction.

human Nectin-4 on cells [2] = target: T2, human Nectin-4 on cells; assay: FACS, T47D cells
huNectin4-His [3] = target: T1, huNectin4-His; assay: SPR, huNectin4-His immobilized, pH 6.5; remark: listed apart in the source
Protocol: as §1, §2, §3

human Nectin-4 on cells [4] = target: T2, human Nectin-4 on cells; assay: cell-based or functional assay
[5] = target: T3, recombinant human Nectin4 antigen; assay: pH range ELISA, 30 ng/mL, pH of 50% binding activity
Protocol: 1) Coat ELISA plates with 100 μL of 1 μg/mL recombinant human Nectin4 antigen in carbonate-bicarbonate coating buffer [0462] 2) Cover plates with sealing film and incubate overnight at 4° C. […] 3) Decant plates and tap out residual liquid on a stack of paper towels [0464] 4) Wash wells twice by dispensing 200 μL of various pH incubation buffer to the wells and completely aspirate the contents [0465] 5) Add 200 μL of various pH incubation buffers (pH5.5, 6.0, 6.2, 6.5, 6.7, 7.0 and 7.4) to the wells. Cover with sealing film and place the plate onto a plate shaker (set to 200 rpm) for 60 minutes at room temperature [0466] 6) Decant plates and tap out residual liquid on a stack of paper towels [0467] 7) Serially dilute test substances in various pH incubation buffers (pH5.5, 6.0, 6.2, 6.5, 6.7, 7.0 and 7.4) to 30 ng/mL [0468] 8) Add 100 μL/well of diluted test substances to the plates [0469] 9) Cover with sealing film and place the plates onto a plate shaker (set to 200 rpm) for 60 minutes at room temperature. [0470] 10) Decant plates and tap out residual liquid on a stack of paper towels. […] 12) Dilute the HRP secondary antibody at 1:2500 in various pH incubation buffers (pH5.5, 6.0, 6.2, 6.5, 6.7, 7.0 and 7.4) [0473] 13) Add 100 μL HRP secondary antibody diluted in various pH incubation buffers (pH5.5, 6.0, 6.2, 6.5, 6.7, 7.0 and 7.4) to each well. […] 14) Cover with sealing film and place the plates onto a plate shaker (set to 200 rpm) for 60 minutes at room temperature. [0475] 15) Decant plates and tap out residual liquid on a stack of paper towels. […] 16) Wash wells three times by dispensing 200 μL of various pH wash buffer (pH5.5, 6.0, 6.2, 6.5, 6.7, 7.0 and 7.4) to the wells and completely aspirating the contents [0477] 17) Dispense 50 μL per well of the TMB substrate solution into all wells of plates.

Binder | Kd (huNectin4-His [1]) | Ratio (pH 7.4/6.0) of EC50 (human Nectin-4 on cells [2]) | Kd (huNectin4-His [3]) | koff (huNectin4-His [3]) | kon (huNectin4-His [3]) | pH inflection point [5] | koff (huNectin4-His [1]) | kon (huNectin4-His [1]) | Ratio (pH 7.4/6.0) of cell killing EC50 (human Nectin-4 on cells [4])
BAP-143-wildtype (antibody, V domains shown, 150 kDa used in SPR; also called BAP143-00-00; benchmark (BM)) VH: EVQLVESGGGLVQPGGSLRLSCAASGFTFSSYNMNWVRQAPGKGLEWVSYISSSSSTIYYADSVKGRFTISRDNAKNSLSLQMNSLRDEDTAVYYCARAYYYGMDVWGQGTTVTVSS VL: DIQMTQSPSSVSASVGDRVTITCRASQGISGWLAWYQQKPGKAPKFLIYAASTLQSGVPSRFSGSGSGTDFTLTISSLQPEDFATYYCQQANSFPPTFGGGTKVEIK | 0.685 nM | 1.2 | 0.102 nM | – | – | – | – | – | –
BAP-143-06-24-16 (antibody, V domains shown, Used as a conjugate with a linker payload (CAB ADC)) VH: EVQLVQSGAEVKKPGATVKISCKVSGFTFSSYNMNWIRQSPSRGLEWLGYISSSSSTIYYADSVKGRFTISRDNSKNTLYLQMNSLRAEDTAVYYCARAYYYGDDVWGQGTLVTVSS VL: DIQMTQSPSSVSASVGDRVTITCHASQGISGWLAWYQQKPGKAPKFLIYAASTLQSGVPSRFSGSGSGTDFTLTISSLQPEDFATYYCQQANSFPPTFGGGTKVEIK | – | 2.9 | 0.00487 nM | 9.92e-06 s⁻¹ | 2.04e+06 M⁻¹ s⁻¹ | – | – | – | –
BAP-143-00-02 (antibody, V domains shown, Used as a conjugate with a linker payload (CAB ADC)) VH: EVQLVESGGGLVQPGGSLRLSCAASGFTFSSYNMNWVRQAPGKGLEWVSYISSSSSTIYYADSVKGRFTISRDNAKNSLSLQMNSLRDEDTAVYYCARAYYYGMDVWGQGTTVTVSS VL: DIQMTQSPSSVSASVGDRVTITCRASQGISGWLAWYQQKPGKAPKFLIYAASTLQSGVPSRFSGSGSGTDFTLTISSLQPEDFATYYCQQANSEPPTFGGGTKVEIK | – | – | – | – | – | 6.7 pH | – | – | 1.7
BAP-143-00-03 (antibody, V domains shown, Used as a conjugate with a linker payload (CAB ADC)) VH: EVQLVESGGGLVQPGGSLRLSCAASGFTFSSYNMNWVRQAPGKGLEWVSYISSSSSTIYYADSVKGRFTISRDNAKNSLSLQMNSLRDEDTAVYYCARAYYYGMDVWGQGTTVTVSS VL: DIQMTQSPSSVSASVGDRVTITCRASQGISGWLAWYQQKPGKAPKFLIYAASTLQSGVPSRFSGSGSGTDFTLTISSLQPEDFATYYCQQANSFPDTFGGGTKVEIK | 2.97 nM | – | – | – | – | 6.71 pH | 0.00229 s⁻¹ | 771000 M⁻¹ s⁻¹ | 2.6
BAP-143-00-04 (antibody, V domains shown, Used as a conjugate with a linker payload (CAB ADC)) VH: EVQLVESGGGLVQPGGSLRLSCAASGFTFSSYNDNWVRQAPGKGLEWVSYISSSSSTIYYADSVKGRFTISRDNAKNSLSLQMNSLRDEDTAVYYCARAYYYGMDVWGQGTTVTVSS VL: DIQMTQSPSSVSASVGDRVTITCRASQGISGWLAWYQQKPGKAPKFLIYAASTLQSGVPSRFSGSGSGTDFTLTISSLQPEDFATYYCQQANSFPPTFGGGTKVEIK | 1.5 nM | – | – | – | – | 6.81 pH | 0.00439 s⁻¹ | 2.94e+06 M⁻¹ s⁻¹ | 2.7

Second part, led by results:

Kd (huNectin4-His [1]) | Ratio (pH 7.4/6.0) of EC50 (human Nectin-4 on cells [2]) | Kd (huNectin4-His [3]) | koff (huNectin4-His [3]) | kon (huNectin4-His [3]) | pH inflection point [5] | koff (huNectin4-His [1]) | kon (huNectin4-His [1]) | Binder | Ratio (pH 7.4/6.0) of cell killing EC50 (human Nectin-4 on cells [4])
– | 14.8 | – | – | – | – | – | – | BAP-143-06-33-03 (antibody, V domains shown, Used as a conjugate with a linker payload (CAB ADC)) VH: QVQLVQSGAEVKKPGASVKVSCKASGFTFSSYNMNWVRQARGQRLEWIGYISSSSSTIYYADSVKGRFTISRDNSKNTLYLQMNSLRAEDTAVYYCARAYYYGMDKWGQGTLVTVSS VL: DIQMTQSPSSVSASVGDRVTITCRASQGISGWLAWYQQKPGKAPKFLIYAASTLQSGVPSRFSGSGSGTDFTLTISSLQPEDFATYYCQQANSEPPTFGGGTKVEIK | –
– | 3.4 | 0.0282 nM | 5.94e-05 s⁻¹ | 2.11e+06 M⁻¹ s⁻¹ | – | – | – | BAP-143-06-33-16 (antibody, V domains shown, Used as a conjugate with a linker payload (CAB ADC)) VH: EVQLVQSGAEVKKPGATVKISCKVSGFTFSSYNMNWIRQSPSRGLEWLGYISSSSSTIYYADSVKGRFTISRDNSKNTLYLQMNSLRAEDTAVYYCARAYYYGDDVWGQGTLVTVSS VL: DIQMTQSPSSVSASVGDRVTITCRASQGISGWEAWYQQKPGKAPKFLIYAASTLQSGVPSRFSGSGSGTDFTLTISSLQPEDFATYYCQQANSFPPTFGGGTKVEIK | –
6.23 nM | – | – | – | – | 6.99 pH | 0.00453 s⁻¹ | 726000 M⁻¹ s⁻¹ | BAP-143-00-05 (antibody, V domains shown, Used as a conjugate with a linker payload (CAB ADC)) VH: EVQLVESGGGLVQPGGSLRLSCAASGFTFSSYNMNWVRQAPGKGLEWVSYISSSSSTIYYADSVKGRFTISRDNAKNSLSLQMNSLRDEDTAVYYCAEAYYYGMDVWGQGTTVTVSS VL: DIQMTQSPSSVSASVGDRVTITCRASQGISGWLAWYQQKPGKAPKFLIYAASTLQSGVPSRFSGSGSGTDFTLTISSLQPEDFATYYCQQANSFPPTFGGGTKVEIK | 2
– | 4.5 | 0.641 nM | 0.000483 s⁻¹ | 754000 M⁻¹ s⁻¹ | – | – | – | BAP-143-07-03-12 (antibody, V domains shown, Used as a conjugate with a linker payload (CAB ADC)) VH: EVQLVESGGGLVQPGGSLRLSCAASGFTFSSYNMNWVRQAPGKGLEWVSYISSSSSTIYYADSVKGRFTISRDNAKNSLSLQMNSLRDEDTAVYYCARAYYYGMDKWGQGTTVTVSS VL: DIQMTQSPSSVSASVGDRVTITCRASQGISGWEAWYQQKPGKAPKFLIYAASTLQSGVPSRFSGSGSGTDFTLTISSLQPEDFATYYCQQANSFPPTFGGGTKVEIK | –
0.22 nM | – | – | – | – | 6.77 pH | 0.000726 s⁻¹ | 3.3e+06 M⁻¹ s⁻¹ | BAP-143-00-06 (antibody, V domains shown, Used as a conjugate with a linker payload (CAB ADC)) VH: EVQLVESGGGLVQPGGSLRLSCAASGFTFSSYNMNWVRQAPGKGLEWVSYISSSSSTIYYADSVKGRFTISRDNAKNSLSLQMNSLRDEDTAVYYCARAYYYGDDVWGQGTTVTVSS VL: DIQMTQSPSSVSASVGDRVTITCRASQGISGWLAWYQQKPGKAPKFLIYAASTLQSGVPSRFSGSGSGTDFTLTISSLQPEDFATYYCQQANSFPPTFGGGTKVEIK | 1.2
